Test results from patent US20220396822A1, “Method for Measuring Pentosidine and Measurement Kit” (Kikkoman Corporation, priority 2019, published 2022).

B1: amino acid degrading enzyme 1: mature escapin derived from Aplysia californica (SEQ ID NO: 15) expressed in Aspergillus sojae (protein, listed as Aplysia californica)
chain: DGVCRNRRQCNKEVCGSSYDVAIVGAGPGGANSAYMLRESGLDIAVFEYSDRVGGRLFTYQLPNTPDVNLEIGGMRFIEGAMHRLWKVISELGLTPKVFKEGFGKEGRQRFYLRGQSLTKKQVKSGDVPYDLSPEEKANQGRLVEYYLEKLTGLQLNGGPLKREVALKLTVPDGRFLYDLTFDEALDLVASPEGKEFARDTHVFTSEVTLDASAISIFDDHLGEDYYGSEIYTLEEGMSSVPQGLLQTFLDAAKSNEFFPNNHLKALRRRTNGQYVLYFEPTTSKDGQTTINYLEPLKVVCAQRVILAMPVYALRQLDWSQLRNDRATQAYRAVRPMPASKVFMTFDQPWWLQNERKSWVTKSDALFSQMYDWQKSEASGDYILIASYADGLKAQYLRELKNQGEDIPGSDPGYNQVTVPLKDAILEHLTEAYGVERDSIPEPVTAASQFWTDYPFGCGWITWRAGYHFDDVISTMRRPSLKDEVYVVGSDYSWGLISSWIEGALETSENVINDYFL
B2: Trichoderma viride-Derived Lysine Oxidase: purchased enzyme manufactured by Merck KGaA, SEQ ID NO: 14 (protein)
chain: MDNVDFAESVRTRWARRLIREKVAKELNILTERLGEVPGIPPPREGRFLGGGYSHDNLPSDPLYSSIKPALLKEAPRAEEELPPRKVCIVGAGVSGLYIAMILDDLKIPNLTYDIFESSSRTGGRLYTHHFTDAKHDYYDIGAMRYPDIPSMKRTFNLFKRTGMPLIKYYLDGENTPQLYNNHFFAKGVVDPYMVSVANGGTVPDDVVDSVGEKLQQAFGYYKEKLAEDFDKGFDELMLVDDMTTREYLKRGGPKGEAPKYDFFAIQWMETQNTGTNLFDQAFSESVIDSFDFDNPTKPEWYCIEGGTSLLVDAMKETLVHKVQNNKRVEAISIDLDAPDDGNMSVKIGGKDYSGYSTVFNTTALGCLDRMDLRGLNLHPTQADAIRCLHYDNSTKVALKFSYPWWIKDCGITCGGAASTDLPLRTCVYPSYNLGDTGEAVLLASYTWSQDATRIGSLVKDAPPQPPKEDELVELILQNLARLHAEHMTYEKIKEAYTGVYHAYCWANDPNVGGAFALFGPGQFSNLYPYLMRPAAGGKFHIVGEASSVHHAWIIGSLESAYTAVYQFLYKYKMWDYLRLLLERWQYGLQELETGKHGTAHLQFILGSLPKEYQVKIV
modifications: Trichoderma viride
B3: PenOX1: protein having the amino acid sequence of SEQ ID NO: 2, pentosidine oxidase from a filamentous fungus of the genus Sarocladium (protein, listed as Sarocladium sp.)
chain: MKSPSLAVAGLLLGSSSLSHATQLRIETRKSLNSRIANVHIDVDAPVAHQVVFTYGPCDSESQENAHHVIAQSQKLEGRKPHRLIWTMPKDLHPDDCISAWGESGDLLGRSVPQKVAHKEMRRRKRDDSDYSIPMNSSSGIDVYGPWFDGVALLEKSDNHNVDVEAAKAKEIAIVGAGMAGLTTYFILSEAGLSNLTILEASGRLGGRVRTEYLSGGPRDHSYAEMGPMRIPYQARFGDKAYNISDQAIFFRLVEKVNERNKKLGNTKDLINLIPFIQSSPNGLAYYQGNKLENGLPPTQADVAADPALGNESPEIPESAQELAAQLQRALPNAEFLELMATNFWQAHAEFLENQGPAGLPGDQWSEFAFLVNYLNATVFDANAVTGGYDWHSSLDRSSLVGMNLLPNAFHPLVDDITKFNAKVEKVQLDEKTSRLKLHWRANYTDPELESQSFDYAILSPTMPAVQKLRLPGLPFAMRNAVDSMPYASACKVALEYRTRFWEKFDNPIYGSCSTSTDIPGIGSVCYPSSNINGSGPASLLASYEIGRPYGAEWAGIPEEQHVQYVIDAMIDIHGEVARREFTGKCKRKCWALDEFSNGGWASPTVGNHETYLPSFFETHSHMIFVGEHTSYTHAWIASAIESAVRGSVQLLLELGLIDEAKDVVNTWMARWISVVSDLSKAVVSGASA
B4: Crotalus Atrox-Derived Amino Acid Oxidase Type I: purchased enzyme manufactured by Merck KGaA, SEQ ID NO: 13 (protein)
chain: AHDRNPLEECFRETDYEEFLEIAKNGLTATSNPKRVVIVGAGMAGLSAAYVLAGAGHQVTVLEASERVGGRVRTYRKKDWYANLGPMRLPTKHRIVREYIKKFDLKLNEFSQENENAWYFIKNIRKRVREVKNNPGLLEYPVKPSEEGKSAAQLYVESLRKVVEELRSTNCKYILDKYDTYSTKEYLLKEGNLSPGAVDMIGDLLNEDSGYYVSFIESLKHDDIFGYEKRFDEIVGGMDQLPTSMYEAIKEKVQVHFNARVIEIQQNDREATVTYQTSANEMSSVTADYVIVCTTSRAARRIKFEPPLPPKKAHALRSVHYRSGTKIFLTCTKKFWEDDGIHGGKSTTDLPSRFIYYPNHNFTSGVGVIIAYGIGDDANFFQALDFKDCADIVINDLSLIHELPKEDIQTFCHPSMIQRWSLDKYAMGGITTFTPYQFQHFSEALTAPFKRIYFAGEYTAQFHGWIDSTIKSGLTAARDVNRASENPSGIHLSNDNEF
modifications: Crotalus atrox
B5: amino acid eliminating enzyme 2: Crotalus adamanteus-derived L-amino acid oxidase Type I, manufactured by Merck KGaA (SEQ ID NO: 19) (protein, listed as Crotalus adamanteus)
chain: B4 chain

Experiments:
Format in all cases: biochemical
[1] = Substrate specificity analysis of amino acid degrading enzymes (reaction rate, A555); conditions: room temperature, pH 6.8, amino acids 4 mM, pentosidine 2 mM solutions
Method: The amino acid eliminating enzyme 1 liquid obtained in Example 12 was diluted to 0.134 U/ml with a 0.1 M potassium phosphate buffer (pH 6.8).
Pentosidine (which was the same as in Example 12) was dissolved at 2 mM in deionized water. Various amino acids were each dissolved at 4 mM in deionized water.
Peroxidase (manufactured by Toyobo Co., Ltd.) (3.99 U/ml), 4-aminoantipyrine (manufactured by Fluka/Honeywell International Inc.) (1.8 mM), and TOOS (manufactured by Dojindo Laboratories Co., Ltd.) (2 mM) were dissolved in deionized water.
Every measurement was performed at room temperature unless otherwise specified. A 96-well microwell plate (manufactured by Nunc/Thermo Fisher Scientific, Inc.) was used in reaction.
25 μl of each amino acid solution or the pentosidine solution of (2) and 25 μl of the coloring reagent of (3) were added in order to 50 μl of the enzyme liquid of (1). At the start and ten minutes later, absorbance at 555 nm was measured. A slope of elevation in absorbance was regarded as a reaction rate for the target substrate. […]
Every measurement was performed at room temperature unless otherwise specified. […] At the start and ten minutes later, absorbance at 555 nm was measured. A slope of elevation in absorbance was regarded as a reaction rate for the target substrate.

[2] = Method for measuring enzymatic activity (pentosidine oxidase activity, A555), Examples 9 and 10; conditions: 37° C., pH 7.5; 1 mg enzyme powder in 1 mL deionized water
Method: The amount of the enzyme that produced 1 μmol of hydrogen peroxide per minute at 37° C. was defined as 1 unit (U). The activity was calculated according to the following expression.
Each buffer was prepared as a 50 mM (final concentration) citric acid-100 mM potassium phosphate buffer (pH 4.0 to 7.5), a 100 mM (final concentration) potassium phosphate buffer (pH 6.5 to 8.0), and a 100 mM (final concentration) glycine buffer (pH 8.0 to 11.0). Enzyme reaction was performed at each pH at a temperature of 37° C. using these buffers. […] It was therefore concluded that the optimum pH of PenOX2 is pH 6.5 to 8.0 and is most preferably pH 7.5.
The activity of PenOX2 was measured at varying temperatures using a 50 mM (final concentration) potassium phosphate buffer (pH 7.5). […] It was thus concluded that the range of the optimum temperature of PenOX2 is from 37° C. to 50° C.
As mentioned above, both PenOX1 and PenOX2 had pentosidine oxidase activity. When the percent match between their amino acid sequences was examined using the BLAST program, the amino acid sequence homology therebetween was 38.2%. […] The amino acid sequence homology to PenOX1 and PenOX2 and pentosidine oxidase activity of each enzyme were as follows.

[3] = Pentosidine quantification test (DA-67/peroxidase, A658); conditions: 37° C., pH 7.0
Method: The following reagents were prepared, and pentosidine was measured using Bio Majesty JCA-BM1650 (manufactured by JEOL Ltd.).
0.2 μM, 0.4 μM, 0.6 μM, 1.0 μM, 2.0 μM or 4.0 μM pentosidine solution (prepared using the same pentosidine as in Example 2)
120 mM potassium phosphate buffer (pH 7.0)
0.2 mM DA-67 (10-(carboxymethylaminocarbonyl)-3,7-bis(dimethylamino)phenothiazine, sodium salt) (manufactured by FUJIFILM Wako Pure Chemical Corp.)
25 μL of each sample was added to 50 μL of the first reagent, and the mixture was incubated at 37° C. for 5 minutes. Then, 25 μL of the second reagent was added thereto, and pentosidine oxidation reaction mediated by PenOX2 and reaction for the detection of hydrogen peroxide produced through the reaction were allowed to proceed at 37° C. for 5 minutes.
In the reaction for the detection of hydrogen peroxide, DA-67 was oxidized, with concomitant consumption of […], into methylene blue which in turn developed color while absorbance (A658) was elevated. […] Elevation in A658 was able to be confirmed immediately after addition of the second reagent containing PenOX2.
Subsequently, the amount of elevation in A658 (ΔA) caused by the oxidation of pentosidine was calculated according to the following expression.
ΔA=(Absorbance 5 minutes after addition of the second reagent)−(Absorbance immediately before addition of the second reagent×0.75)

Molecule | substrate having the highest reaction rate [1] | specific activity (pentosidine oxidase) as a reference value [2] [U/mg] | other results
B1 | arginine |  | 
B2 |  | 0.063 | 
B3 |  |  | pentosidine oxidizing activity [3]: exhibited pentosidine oxidizing activity
B4 |  | 0.022 | 
B5 | leucine |  | 
